± gives the half width of the 95% confidence interval.
Assays:
[1] = folding stability dG unfold (combined trypsin and chymotrypsin); higher = more stable
Outline: (§1)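 K50 was inferred by Bayesian fitting of sequencing counts obtained after protease digestion of designed mini-proteins. Unfolding free energy was derived by comparison with a sequence-predicted unfolded-state K50 and a shared folded-state K50, for each protease or both combined. The mini-proteins were under 80 residues, had no cysteine, were carried in a PA-tagged cDNA display construct, and were kept only if AlphaFold2 dimer inter-PAE exceeded 15.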

[2] = folding stability dG unfold from chymotrypsin proteolysis; higher = more stable
Outline: as §1

[3] = folding stability dG unfold from trypsin proteolysis; higher = more stable
Outline: as §1

Sequence	folding stability dG unfold [1]	folding stability dG unfold [2]	folding stability dG unfold [3]
SAGGPNWMQMEIWLPPGNPEKIEKIIRDKGWKVEDIKVKEVNPNNGWMRVTIYMPGPWPMDEIKEAVRSAGG [r13_725_TrROS]	3.15 ± 0.25 kcal/mol	3.6 ± 0.16 kcal/mol	1.96 ± 0.11 kcal/mol
SAGGPNWYLKVKIEHRYPNPDNGKWQERRMEVIIPFKDPDQLPPNALKKLIDIMQPMGFRVDVELFPWSAGG [r13_926_TrROS]	3.76 ± 0.28 kcal/mol	3.99 ± 0.12 kcal/mol	3.19 ± 0.23 kcal/mol
SAGGPPEGEKKKFRIDDVQPMPNPNGYFMVQIRYNDKPVSSIPIPPNNLDKLANDLPPGMEVEIYPFSAGGS [r8_41_TrROS]	0.369 ± 0.21 kcal/mol	0.511 ± 0.19 kcal/mol	0.06 ± 0.11 kcal/mol
SAGGPPFKIKEINIQYNPDAGYVTMTFTFDDGATVEAMISPEEGRIPGKVEVPGKEIEHEFEIPVPPSAGGS [r8_363_TrROS]	1.38 ± 0.19 kcal/mol	1.5 ± 0.099 kcal/mol	1.4 ± 0.041 kcal/mol
SAGGPPGDPILLRISYTIRPNGKERTMDHEIPFKNPNQPITLEQIRKELRDALPPGYKITDVEIDVLSAGGS [r16_407_TrROS]	0.444 ± 0.1 kcal/mol	0.276 ± 0.16 kcal/mol	0.364 ± 0.069 kcal/mol
SAGGPPGEEIPIMVRIKMRNPENGEEMELPITHTVKSKEDLKWAKKLVDEIAEEFREQGMKDVEIEIFSAGG [r13_360_TrROS]	0.908 ± 0.15 kcal/mol	1.07 ± 0.21 kcal/mol	0.47 ± 0.15 kcal/mol
SAGGPPPDTTVTVTLTRTTPTQWLIEFPATGEVREIPRDPAASDEEAKELVKELAKEEGYNVNINLTSAGGS [r16_446_JUSTAS]	0.812 ± 0.3 kcal/mol	0.438 ± 0.29 kcal/mol	1.05 ± 0.081 kcal/mol
SAGGPPSVWIPIEINFPDSPEQLLEEVENAAQEIADLFGIPVKIEVERNPKKGYATIWIRVDGKTIPISAGG [r13_845_TrROS]	1.71 ± 0.22 kcal/mol	1.7 ± 0.11 kcal/mol	1.66 ± 0.041 kcal/mol
SAGGPPVTIMIRLPPLQEQLPPEWLEKLKNIRVPNGHPIKDIDVQPHNGRWVIMIKVDSPEQARDIIRSAGG [r13_269_TrROS]	1.75 ± 0.13 kcal/mol	1.89 ± 0.053 kcal/mol	1.66 ± 0.048 kcal/mol
SAGGPPYYMIKIRYPDNGKEYEIPPGIKVHRDPNNEVYIMFRSPAAADDLVDEIAPTNGLRVEIEPFSAGGS [r8_131_TrROS]	0.915 ± 0.3 kcal/mol	1.07 ± 0.24 kcal/mol	0.945 ± 0.23 kcal/mol
SAGGPRITITYPLPPGDIEKIEKLAKEALDNGDNVDVNIPHPNGWYVTLTVDPPNGKIEEVEWQPPDKSAGG [r13_873_TrROS]	0.499 ± 0.12 kcal/mol	0.598 ± 0.061 kcal/mol	0.571 ± 0.076 kcal/mol
SAGGPSIPGEKIRELLEKGYSLEEIVEFLEKENIPIARIEGVEPHPNSITIVFYNPETGEKITAVIGSAGGS [r8_179_TrMRF]	2.72 ± 0.14 kcal/mol	2.96 ± 0.081 kcal/mol	2.02 ± 0.058 kcal/mol
SAGGPVKLVKVQFINPETGEPVEISGPASKVLEIAEKLGLNVTSVTVIENPNTILVVVPGPNQLVVVTDSAG [r5_521_TrMRF]	1.69 ± 0.11 kcal/mol	1.45 ± 0.018 kcal/mol	1.82 ± 0.055 kcal/mol
SAGGPVNKKELVTVPVYYDPETGKFVVKATYPTRPITVPTDETDPVEALARFGTLLEKVTGKPIDTFVGSAG [r5_251_TrMRF]	0.288 ± 0.04 kcal/mol	0.414 ± 0.098 kcal/mol	-0.0487 ± 0.083 kcal/mol
SAGGPVTFEAPLEELLKALPPELVRHASVEPLGEGERRFIATVELEDRRIEAYSDPERPGRVLVTLHFSAGG [r13_942_TrMRF]	0.569 ± 0.12 kcal/mol	0.688 ± 0.12 kcal/mol	0.332 ± 0.11 kcal/mol
SAGGPVTTVSVSGFVLPDGSRALLVTVATYYPDGYVAVPPVLVLVYPNGESEASTSTLVVKVPGGALSAGGS [r16_505_TrMRF]	2.79 ± 0.04 kcal/mol	3.008 ± 0.011 kcal/mol	2.3 ± 0.056 kcal/mol

Sequence	folding stability dG unfold [1]	folding stability dG unfold [2]	folding stability dG unfold [3]
SAGGQKTETFEFAFRKPDGSLYLVKITLIEKLPNEPNVYIAKVEVYKLNLVTGKPEKVGEFEVLLNLSAGGS [r8_65_TrMRF]	4.96 ± 0.14 kcal/mol	5.04 ± 0.15 kcal/mol	3.4 ± 0.13 kcal/mol
SAGGQRIEFEVQPNPENGMIFIKVKFQQMEPDPNGNKETREITHTVMVKLPPGAKPGEKIEIDIPPNMSAGG [r13_450_TrROS]	1.1 ± 0.39 kcal/mol	0.828 ± 0.25 kcal/mol	0.859 ± 0.046 kcal/mol
SAGGQRIEIKIKPGYFIMIKIRNPKNGETFRHFIPFKKPQEIEIPIPPNYEIEDIYIMPPKDMPDGMISAGG [r13_119_TrROS]	2.15 ± 0.18 kcal/mol	2.28 ± 0.09 kcal/mol	2.11 ± 0.058 kcal/mol
SAGGRIEIDPNSMQIKIYDAEDGEKVEIPINMPPGQIKEIELDPDGKISIRMPMWGQTQELPADDIKSAGGS [r16_410_TrROS]	0.793 ± 0.16 kcal/mol	1.22 ± 0.023 kcal/mol	-0.206 ± 0.061 kcal/mol
SAGGRIVINLNPENGYLMISIRMPHRRYDPEDGKGKPEPMSMSIMFPPEEIEKFAEEFGMPIEIVPWSAGGS [r8_337_TrROS]	1.56 ± 0.18 kcal/mol	1.4 ± 0.16 kcal/mol	1.42 ± 0.071 kcal/mol
SAGGSAAEETYESDGLTVTVRTERGPDGTVRVVVEVRDRDGPLLATLPFTFKAREDEGLSFSVPFPSAGGSA [r15_950_TrMRF]	1.34 ± 0.076 kcal/mol	1.26 ± 0.099 kcal/mol	1.28 ± 0.036 kcal/mol
SAGGSAAGYAVLVRVEEVRLTSFRRRADGSLLEVDPDVELKLEVLAVFRIYPSPGDGWVVDPSDPASAGGSA [r15_162_TrMRF]	3.53 ± 0.062 kcal/mol	3.827 ± 0.025 kcal/mol	2.73 ± 0.057 kcal/mol
SAGGSAALPIVEVLETEESSDGTVTILAKLEDGTVVTITVTVEVKPPPPPPPVDPANMSPERLAAVSAGGSA [r15_41_JUSTAS]	0.566 ± 0.19 kcal/mol	0.181 ± 0.07 kcal/mol	0.998 ± 0.08 kcal/mol
SAGGSAAPEDTLVEEEVEIVTEETDPKLGGKKIVTTKVKRLIRYFPEKGELEVETVETETTVYPNESAGGSA [r15_517_JUSTAS]	0.111 ± 0.1 kcal/mol	0.416 ± 0.084 kcal/mol	-0.644 ± 0.47 kcal/mol
SAGGSAAPLVLPVRIYGPNENVTAEASEYDPGTGIVRLTVTHPDGTKTTLTFTGPAALLPPDADLNSAGGSA [r15_596_TrMRF]	0.764 ± 0.056 kcal/mol	0.849 ± 0.066 kcal/mol	0.611 ± 0.023 kcal/mol
SAGGSAAPPVTVEVLPDGRIVITRGDAVASSVTPVPPDATITATFPATGETVTITRRAPEVTVTPASAGGSA [r15_235_JUSTAS]	0.835 ± 0.097 kcal/mol	1.19 ± 0.017 kcal/mol	-0.616 ± 0.29 kcal/mol
SAGGSAAPVPVGAELAAAAPGAAVTVELPDGVTATVTRVGDTLVVDVTRFSEPPLPVSSATATLPLSAGGSA [r15_558_JUSTAS]	0.409 ± 0.05 kcal/mol	0.638 ± 0.028 kcal/mol	-0.369 ± 0.066 kcal/mol
SAGGSAATVEVTRLPGGRYVVRLRNPDTDEEIVVELPVDASTTPEDVLEAARALVAELEEEGYTIESAGGSA [r15_1022_TrMRF]	3.04 ± 0.058 kcal/mol	3.135 ± 0.024 kcal/mol	2.92 ± 0.07 kcal/mol
SAGGSAAVGTSKGANVVTVRVEELEDKVVVYRYDPATGTVRVIVIDKPTGKALETKTFPVLPDQDASAGGSA [r15_425_TrMRF]	1.65 ± 0.049 kcal/mol	1.95 ± 0.047 kcal/mol	1.01 ± 0.018 kcal/mol
SAGGSADELLDKLGLPPDNIRKIKPVEPNPNGMRQLELEWPYKENGKEWRITIMYSPDGIMIDIEPSAGGSA [r15_813_TrROS]	1.57 ± 0.1 kcal/mol	1.87 ± 0.053 kcal/mol	0.834 ± 0.061 kcal/mol

— the supplement of paper PMC12764529
